This note sets out measurements from article PMC6978305, “Formation of S. pombe Erh1 homodimer mediates gametogenic gene silencing and meiosis progression” (Scientific Reports, 2020).

The series concerns the molecule itself. In words: SEC-MALS; SEC-MALLS of purified recombinant proteins in solution. For orientation: Size exclusion chromatography separates by hydrodynamic size, large species first.

B1: S. pombe Erh1, wild type, recombinant (natural protein, UniProt G2TRN4 1-104, looked up)
chain: MSPPPAESHIILLIQQGSDPKTRIWSDHCSLRSAIEYIVGVYQTNQAVSEKESIDVSRFFNFFDEIYDCVPLVYDRHFRAYIPHEKQWLLHHAQEYLTAARQIP
notes: Erh1, S. pombe, full length, from plasmid pMG921 (pGEX-6P1); After 3C cleavage some residues of the N-terminal tag remain (4 of them are seen in protomer B of the crystal structure); also called wild-type Erh1; apo-Erh1; source: E. coli BL21 (DE3) Codon+, purified (GSH-sepharose, 3C cleavage, Superdex 75); not shown: GST, N-terminal, cleaved
Consider B1, for which the “stoichiometry N” value was found to be 2.

As a reminder, the stoichiometry N is the number of molecules, sites or subunits per partner or assembly.
